According to the DeepSol protein solubility set:

Experiment: soluble on expression in E. coli; label from the status in PepcDB or PDB records

MGSRSSHAAVIPDGDSIRRETGFSQASLLRLHHRFRALDRNKKGYLSRMDLQQIGALAVNPLGDRIIESFFPDGSQRVDFPGFVRVLAHFRPVEDEDTETQDPKKPEPLNSRRNKLHYAFQLYDLDRDGKISRHEMLQVLRLMVGVQVTEEQLENIADRTVQEADEDGDGAVSFVEFTKSLEKMDVEQKMSIRILKHHHHHH
soluble on expression in E. coli: soluble

MSDKFNQFINRVLSHEGGYANHPKDPGGETNWGITKRTAQANGYNGSMRAMTREQAISIYRKAFWERYRADQMPEAVAFQFFDACVNHGYGNAARMLQRAAGVPDDGVIGAVSLKAINSLPENDLLLRFNAERLVFYTKLGTFTSFGKGWVRRVAQNLIHASADNTD
soluble on expression in E. coli: soluble

IKKPMSASALFVQDHRPQFLIENPKTSLEDATLQIEELWKTLSEEEKLKYEEKATKDLERYNSQMKRAIEQESQMSLKD
soluble on expression in E. coli: soluble

MSLSHMANEMLLDIDGMDFVEDEDMGAEGELQFSFDPVSNAPMVSFPSTQQPDLEKLRFKFAPVLSRSFAFNGGSRTGTLYGVQVPYVDNSKEFSQYAAKLFEVYKSLGADKQFAVPTIGLINHTSTLEHNQTVNLALEAIVSELELFIESLKYSGRQQRLVDLEECLSILNCLKTVQFTLDSEEENSRAKFIDSLISWVNRTDGEPSEAVIAKVLGDGKQTPILENPYFWRLLCQLIIRGLFDQAVAAIEKSELLSYLADKCSATHTMVQDMVNLLQGYPRELEPVYREWKDLVLQLHLNWSQSEHKISIELASSLEDCLLIMCGNKSKIIYYSKTWYECYCGLMLYYIPSLQLSEEYLQLVLKEHPLDVTSPWEQACVSIITGKIYSILPVLDSLDSCTAAFTAAICEAKGLLENDLLDDGGLEVSNTGDEMFGLGNTMASYLLNQFALSIVTYEDKNLWAVAIGIIYLTPNYSDAAKRMMIAELLPHYPFQTNDDIEWMLTICAKWKLPQIARTIYRVLGQEALYLNNIIEAISNFSKAGEFEWVKHYSWMIFEASILQGAPLEDEVVNSIVTGEYESAIPKELVEVMVTPAMKQSLSPYAVLFNFFRATEDGRWAEALKLLLSLIEFTYLPPQYLILLIGRFLYPLFLQDESKMFKEQDVLRVIKALEQFHDRPDEITTAMYKELLVKVDTLPKDPLNLINAIRTKLSLKLCHQFMEGHHHHHH
soluble on expression in E. coli: not soluble

MEKPVFYLDRVGEENTEAVIGAAAKRAAELGISHIVVASTSGKTALKMAEAVKGSNIKVIGVSHQYGQKEKGEWEVGEEYRKKLEELGAVITTQSHMFSGIERSITKKFGGYSRIEVISDTLRSLFGKGFKVAIEVAIMAADSGHIPVSDDTEIIAIGGTRWGADVALVLRPAHSNDFFSLQVREIIAMPRAKEDLEHHHHHH
soluble on expression in E. coli: soluble

MAIRVIGTGFGRTGTDSMREALTILGFGPCHHMSEVMGNEDQKRLWRALAKGAAPDWNQLFAGYASCIDWPSAHYWRDLIEFYPKARVILTYRSPESWWASFEKTILAGISQSTDQESLGLALISRQVFDGRPHDRANAIAVYEANVRAVIATVPPSRLLVHNLGDGWKPLCLHLDVPLEHHHHHH
soluble on expression in E. coli: not soluble

MGGIARLYGDSALAHFSQAHVCVVGVGGVGSWAVEALARTGIGRLTLIDLDNVAESNVNRQLHALTGDFGKAKVTALRERITQINPQCEVFEIEDFVTEDNLPEYFGKGFDFVIDAIDQVRVKAAMAAYFVERKQPFVLSGGAGGQKNPALIQTADLSRVTHDPLLANLRYTLRKRYGFSRDTKANMRVPCVYSTENIVPPQSREACSADAAPQGLSCAGYGASMLVTASFGLYCAQAAVEHIADKKLEHHHHHH
soluble on expression in E. coli: not soluble

STERRRDELSEEINNLREKVMKQSEENNNLQSQVQKLTEENTTLREQVEPTPEDEDDDIELRGAAAAAAPPPPIEEECPEDLPEKFDGNPDMLAPFMAQCQIFMEKSTRDFSVDRVRVCFVTSMMTGRAARWASAKLERSHYLMHNYPAFMMEMKHVFEDPQRREVAKRKIRRLRQGMGSVIDYSNAFQMIAQDLDWNEPALIDQYHEGLSDHIQEELSHLEVAKSLSALIGQCIHIERRLARAAAARKPRSPPRALVLPHIASHHQVDPTEPVGGARMRLTQEEKERRRKLNLCLYCGTGGHYADNCPAKASKSSPAGNSPAPL
soluble on expression in E. coli: soluble

MAHHHHHHMIKRYLKIYPSIYFTKHVYTAPEIDGSKDLLKKDYVFNQYVNKKEIFLNNKLKKGNCENEIKRIYYFKLWNAMVEHNFTLFENIIQQYLNEGYKYDEVIYSIMTHAYILNHKKKNENAYLVIEEMKRAFMHPIIIKINERMINCFLELELIFCEPSKSLWINVCRFIWESSIKLNRERRRKLKEKLNLLEPNQVLKLTKEDVKKLVKKEYEETLLSMMDTLSLDGEDPYDHILIDRKENYMKIENQKDGNFFPSNGNELTCLNNNHIYNDHINYLKGNIENDTSENVNSFMFSILNEGKNKTTEQEINYQDDYNLNNNDYMTKITNINSDNNIMMNMENEHMYETDEKDEHYESFDDAEDFDIQLLKKYYNLK
soluble on expression in E. coli: not soluble

MGSDKIHHHHHHVVAEAVNLQFDYSRYGFRQEERYVYKAPKGLNERIVRELSGMKGEPEWMLKRRLRALEIFNKKPTPLVGTWANPELAELNYDDIHYFVRANERPQTDWDAVPPEIKNTFERLGIPEAERKFLAGVGAQYESEVVYHSLREEWAKQGVIFLDTDTALKEYPEFFKEYFGTIVPAADNKYAALNTAVWSGGSFVYVPKGVKVDIPLQAYFRINAERMGQFERTLIIIDEGAEAHYIEGCTAPIYSTNSLHSAVVEVIVKKGGKFRYTTIQNWANNIFNLVTKRAVAYEEASMEWVDGNIGSKLTMKYPSVYLMGRKARGEVLSVAYAGRGQHQDAGAKMIHLAPETTSRITNKSVSKDGGKTTYRGLAKVAPGAYGAKINVNCDALILDEHSASDTIPYIEIEEDRCTLAHEATVGRIGAEQLFYLMSRGISESDALSMIVLGFMEPFTRELPMEYAVELNRLIQLEMEGSVG
soluble on expression in E. coli: not soluble

MRRAEMLLLKSLAETLMADRDNRHDDLQATMRLAHLSSPEMILYMVNRVLELEESIERIAAVLQKLSADEPMPLEETPPEPAFEPALQSRATETAET
soluble on expression in E. coli: not soluble

MLSNNVNPVVGLSYRPLPETPPSGQAAAHPSMRLLEPNNDEFVRSVASPRLHHSSEALREVKHDVRQFQASGDRSLQQLRDLEVALNHWEASQPREFAKRGGMVAELRTAIDAYKQQLHEQAPSHANLDVKWLDGLRAGSMALQGDVKVWMQNLEDLHTRRPDEFAARLQQSTDALYSHLEAQWAKQHGTPPTASDVAGMPQWQEYTAMLRERFAGLDTIRPNLTAEENGVAILKTQTQLLALQRAQEALQASLADGVSHQGDVGLLRTQLLAGMVEGLIALQQADDDSALWSRPSAADSGGRLSVEAGAKASTDFEAPASKGELLRGKGISGEAVLEAFANIEMSVSGSRAGAAGEAEGSLRLYGESTARAEVSGSFEPFALSGSIGREEADGDTAASANPVLSLNVSAELSSKLGLEAQGSVTLGSLLKLDAEGRAEVGASAEVSGTAAIDKRSDGLGVRLEGQAEAFAGLKAEGTLTANLLHSKYADAHGLTASVTGSANVGLGATAEGKLVASPGQFEMGGEVGTTLGVGGNIGWNSKVDVNASTAYAYELASAAMARFDALRASQLDHDAKTSGNESQLNRLAANLQSHIDATSQKLDALNSAGVESRIRKVDGFAAGDGAQAAAGLAAQMALVGTGADLSHDIKITALNLRA
soluble on expression in E. coli: not soluble

MDALVEDDICILNHEKAHKRDTVTPVSIYSGDESVASHFALVTAYEDIKKRLKDSEKENSLLKKRIRFLEEKLIARFEEETSSVGREQVNKAYHAYREVCIDRDNLKSKLDKMNKDNSESLKVLNEQLQSKEVELLQLRTEVETQQVMRNLNPPSSNWEVEKLSCDLKIHGLEQELELMRKECSDLKIELQKAKQTDPYQEDNLKSRDLQKLSISSDNMQHAYWELKREMSNLHLVTQVQAELLRKLKTSTAIKKGKSLFTGNH
soluble on expression in E. coli: soluble

AHHHHHHGSKEEEIHVDPQIVKNITEILKNIKKMKVKQDKRVKWRRENDGRIITFNPITGKICVMNPTLAEIYVMTKNPKGCTFETLIRTLKQRFPSIDEKQLESDILRAMTWLFINGFVYLEDTSKKSKKINIVDVIMEISNQKRGPRQ
soluble on expression in E. coli: not soluble

MGSDKIHHHHHHMKTTALRLYGKRDLRLETFDLPEMQEDEILATVVTDSLCLSSWKEANLGENHKKVPDDVTTNPIIIGHEFCGDILAVGKKWQHKFQPGQRYVIQANLQLPDRPDCPGYSFPWVDGEATHVVIPNEVMEQYCLLAYDGETYFEGSLVEPLSCVIGAFNANYHLQEGSYNHTMGIRPQGHTLILGGTGPMGLLAIDYALHGPVNPSLLVITDTDNDKLSYARKHYPSEPQTLIHYLNATDAAFDTLMALSGGHGFDDIFVFVPNEGLVTLASSLLATDGCLNFFAGPQDKHFSAPINFYDVHYAFTHYVGTSGGNTDDMRAAVKLIEEKKVQAAKVVTHILGLNAAGETTLELPAVGGGKKLVYTGKYLPLTSLTQIQDQALAAILARHQGIWSGEVEQYLLAHAEAISHD
soluble on expression in E. coli: not soluble

MWKAVMNAWNGTESQSKNVSNIQSYSFEDMKRIVGKHDPNVVLVDVREPSEYSIVHIPASINVPYRSHPDAFALDPLEFEKQIGIPKPDSAKELIFYCASGKRGGEAQKVASSHGYSNTSLYPGSMNDWVSHGGDKLDL
soluble on expression in E. coli: soluble

MGSDKIHHHHHHMYAYHPEDIEDIKELIAQTENEQVEFKETTGQLERGMETLCAFLNGEGGTVLFGITDKGKIIGQEVADVTKRSIAEAINRLEPTANVHVFYIPLPDSSKKIIALHVENSRDNRPFCYKSRPYYRVESVTSAMPQAVYNQLLIIRDEAKYRWELFENPKLSLQDMDENEILKTVRLGIECGRLPENTGNNLSIILEKFGLLVNGVLNNAAAVLFANRELIEYPQCLLRLARFKGTDKMVFMDNQRVQGNLFQLLDSAMTFIFKHLSLSGTTEALEREEHLTIPYKAIREGIINSLCHRQFRTPGGSVGIAIYDDRVEIENPGTFPHGWDMERMKSEHCSEPRNPLIANVLYKRKLLENWGRGISLMTEECRKANLPEPEFKLANGFVILVFRYGTNNHTSTMQVPHKHHISTIQVQSLLNIMEYNTYSVKEMMELLELKNRSYFSKEYLKPAVETGVIEPIFPDQPKSPKQKYRLTEKGKALLEKR
soluble on expression in E. coli: not soluble

MRKVRIANEQTEESDIIKIVHLSDIHFSEAYYMPEIADSMLQIINESSPDIVIITGDLTENGFAAEYNGAKNFIDKIECKNKVIVPGNHDSKNAGYLFFEDIFKARSSSGYFGDVTVIGLDSSQPELDDGHIGRENYGWIESTFSTGSFKVFALHHHLIPIPKTGRGNNVLVDAGDVLELLDRSGVNLVLCGHWHIPWVWRLNDMFIISAGTVCSSKIRGKTSQCYNLIELETPESECTRWHLRITRVFSSGIKELVVDNIV
soluble on expression in E. coli: not soluble

MFDVDIKFGDVYVRNIEEKDIGELKEILKDKKFYLNDEELKEIFLEYYMSECEFFTKILKKGKFVGVFRGRIEFKSSNMAWISYFYVDERYSSYKDSQDILMNILEYFSESFGVTDFITGVTNSEKDMIELWENNDFKTVRINKEFYSDRGYKEDLVIMKKYSAI
soluble on expression in E. coli: not soluble

MLAMVNKVLDWIRSLFWKEEMELTLVGLQNSGKTTFVNVIASGQFTEDMIPTVGFNMRKITKGNVTIKLWDIGGQPRFRSMWERYCRGVNAIVFMVDAADEEKLEASRNELMQLLDKPQLDAIPVLVLGNKKDLPGALDERQLIERMNLSSIQNREICCYSISCKEKENIDITLQWLIDHSKAQR
soluble on expression in E. coli: not soluble

MGHHHHHHSHMEEMKKTAIRLPKGKQKPIKTEWNSRCVLFTYFQGDISSVVDEHFSRALSNIKSPQELTPSSQSEGVMLKNDDSMSPNQWRYSSPWTKPQPEVPVTNRAANCNLHVPGPMAVNQFSPSLARRASVRPGELWHFSSLAGTSSLEPGYSHPFPARHLVPEPQPDGKREPLLSLLQQDRCLARPQESAARENGNPGQIAGSTGLLFNLPPGSVHYKKLYVSRGSASTSLPNETLSELETPGKYSLTPPNHWGHPHRYLQHL
soluble on expression in E. coli: not soluble
